1 molecule from PMC10926635, “Membrane-associated RING-CH 7 inhibits stem-like capacities of bladder cancer cells by interacting with nucleotide-binding oligomerization domain containing 1” (Cell & Bioscience, 2024) can be followed below.

The experiment deals with T1, HA-NOD1, purified protein (UniProt Q9Y239-1 1-953).
T1 construct: also called purified NOD1 protein; source: purified by Hangzhou Jingjie Biotechnology Co., Ltd
T1 sequence (looked up): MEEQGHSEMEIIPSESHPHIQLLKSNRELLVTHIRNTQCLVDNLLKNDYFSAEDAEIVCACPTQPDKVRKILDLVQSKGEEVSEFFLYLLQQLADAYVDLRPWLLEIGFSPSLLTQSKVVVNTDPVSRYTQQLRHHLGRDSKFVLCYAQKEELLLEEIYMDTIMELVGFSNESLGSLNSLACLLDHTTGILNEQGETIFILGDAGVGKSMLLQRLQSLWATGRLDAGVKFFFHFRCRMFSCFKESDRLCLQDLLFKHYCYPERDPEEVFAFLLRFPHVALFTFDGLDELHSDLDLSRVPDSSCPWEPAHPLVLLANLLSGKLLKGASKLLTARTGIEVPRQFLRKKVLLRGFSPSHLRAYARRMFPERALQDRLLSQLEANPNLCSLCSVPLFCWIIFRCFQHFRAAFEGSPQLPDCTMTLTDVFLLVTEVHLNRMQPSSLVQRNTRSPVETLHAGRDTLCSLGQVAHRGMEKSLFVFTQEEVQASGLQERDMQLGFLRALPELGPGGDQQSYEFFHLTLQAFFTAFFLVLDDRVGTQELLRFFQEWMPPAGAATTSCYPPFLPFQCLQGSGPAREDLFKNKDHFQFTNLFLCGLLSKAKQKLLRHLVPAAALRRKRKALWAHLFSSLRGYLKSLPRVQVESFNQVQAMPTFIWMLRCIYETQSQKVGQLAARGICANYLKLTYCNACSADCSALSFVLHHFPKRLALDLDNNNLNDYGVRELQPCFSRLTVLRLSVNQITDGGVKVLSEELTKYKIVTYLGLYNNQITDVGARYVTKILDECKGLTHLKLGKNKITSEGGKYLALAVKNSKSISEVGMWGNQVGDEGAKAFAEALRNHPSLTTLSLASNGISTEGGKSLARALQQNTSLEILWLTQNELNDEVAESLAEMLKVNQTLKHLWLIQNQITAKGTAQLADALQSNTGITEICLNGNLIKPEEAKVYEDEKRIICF
The experiment in a line: co-IP; purified Flag-MARCH7 and HA-NOD1 proteins mixed; co-IP as for the cell lysates. To be noted: both partners purified.

B1: Flag-MARCH7-WT, purified protein (enzyme, UniProt Q9H992-1 1-704, looked up)
chain: MESKPSRIPRRISVQPSSSLSARMMSGSRGSSLNDTYHSRDSSFRLDSEYQSTSASASASPFQSAWYSESEITQGARSRSQNQQRDHDSKRPKLSCTNCTTSAGRNVGNGLNTLSDSSWRHSQVPRSSSMVLGSFGTDLMRERRDLERRTDSSISNLMDYSHRSGDFTTSSYVQDRVPSYSQGARPKENSMSTLQLNTSSTNHQLPSEHQTILSSRDSRNSLRSNFSSRESESSRSNTQPGFSYSSSRDEAPIISNSERVVSSQRPFQESSDNEGRRTTRRLLSRIASSMSSTFFSRRSSQDSLNTRSLNSENSYVSPRILTASQSRSNVPSASEVPDNRASEASQGFRFLRRRWGLSSLSHNHSSESDSENFNQESEGRNTGPWLSSSLRNRCTPLFSRRRREGRDESSRIPTSDTSSRSHIFRRESNEVVHLEAQNDPLGAAANRPQASAASSSATTGGSTSDSAQGGRNTGISGILPGSLFRFAVPPALGSNLTDNVMITVDIIPSGWNSADGKSDKTKSAPSRDPERLQKIKESLLLEDSEEEEGDLCRICQMAAASSSNLLIEPCKCTGSLQYVHQDCMKKWLQAKINSGSSLEAVTTCELCKEKLELNLEDFDIHELHRAHANEQAEYEFISSGLYLVVLLHLCEQSFSDMMGNTNEPSTRVRFINLARTLQAHMEDLETSEDDSEEDGDHNRTFDIA
notes: Membrane-associated RING-CH 7 (MARCH7); also called purified MARCH7 protein; source: purified by Hangzhou Jingjie Biotechnology Co., Ltd
Take B1: the binding result is given as “binds”.
